From patent US20220098261A1 (Harvard, published 2022) come the findings set out here.

The target of one test is T1, EPO receptor on cells (human, UniProt P19235 25-508).
T1 sequence (looked up): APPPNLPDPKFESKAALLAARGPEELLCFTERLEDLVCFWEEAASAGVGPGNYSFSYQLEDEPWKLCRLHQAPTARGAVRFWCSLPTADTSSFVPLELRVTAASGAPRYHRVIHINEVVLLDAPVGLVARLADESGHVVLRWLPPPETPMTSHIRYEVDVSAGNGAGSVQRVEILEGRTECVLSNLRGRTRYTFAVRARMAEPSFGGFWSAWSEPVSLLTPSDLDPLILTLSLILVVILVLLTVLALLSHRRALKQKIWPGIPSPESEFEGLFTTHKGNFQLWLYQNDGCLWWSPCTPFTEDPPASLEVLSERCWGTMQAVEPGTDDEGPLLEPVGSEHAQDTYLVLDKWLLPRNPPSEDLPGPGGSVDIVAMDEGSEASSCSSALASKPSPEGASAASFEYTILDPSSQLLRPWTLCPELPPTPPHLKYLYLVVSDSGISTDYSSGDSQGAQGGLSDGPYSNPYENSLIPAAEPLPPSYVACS
The experiment in a line: cell-based or functional assay.

Test [1] concerns the target T2, human glycophorin A (human, UniProt P02724 20-150).
T2 construct: Native protein on human red blood cells (and TF-1 cells); also called GYPA; huGYPA
T2 sequence: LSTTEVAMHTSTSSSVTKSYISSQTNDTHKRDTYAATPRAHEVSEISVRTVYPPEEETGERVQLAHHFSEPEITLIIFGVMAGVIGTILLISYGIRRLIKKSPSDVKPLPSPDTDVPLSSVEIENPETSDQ
The experiment in a line: column 'Binding strength' of Table 1, format scFv; method not stated.

For test [2], the target named is T2, human glycophorin A. Description: column 'Binding strength' of Table 1, format nanobody; method not stated.

Turning to Darbepoetin (Amgen) (ligand), the TF-1 cell proliferation, EC50 relative to epoetin alpha with EPO receptor on cells worked out at 14.7 fold.

B1: 1C3 scFv (scFv)
scFv: EVRLLESGGGPVQPGGSLKLSCAASGFDFSRYWMNWVRRAPGKGLEWIGEINQQSSTINYSPPLKDKFIISRDNAKSTLYLQMNKVRSEDTALYYCARLSLTAAGFAYWGQGTLVTVSAGGGSSGGSGSSGGSSSGGDIVMSQSPSSLAVSVGEKVSMSCKSSQSLFNSRTRKNYLTWYQQKPGQSPKPLIYWASTRESGVPDRFTGSGSGTDFTLTISSVQAEDLADYYCKQSYNLRTFGGGTKLEIK
A word on the Kd: it is the concentration at which binding is half-saturated. Lower therefore signals tighter binding. For the molecule B1, the Kd in the test with human glycophorin A [1] was found to be 30 nM.

B2: IH4v1 nanobody (VHH)
VHH: QVQLQESGGGSVQAGGSLRLSCVASGYTDSTYCVGWFRQAPGKEREGVARINTISGRPWYADSVKGRFTISQDNSKNTVYLQMNSLKPEDTAIYYCTLTTANSRGFCSGGYNYKGQGTQVTVS
notes: Camelid single-domain antibody with the added Thr118
With B2, the affinity with human glycophorin A [2], expressed as Kd, was 30 nM.
